We go through 1 protein from publication PMC5081515, “Crystal structures and inhibition of Trypanosoma brucei hypoxanthine–guanine phosphoribosyltransferase” (Scientific Reports, 2016).

The Km is the substrate concentration at which the rate is half of its maximum. The kcat is the maximal rate divided by the concentration of active sites. As usually defined, the kcat/Km is the turnover number divided by the Michaelis constant.

Substrate in data set [1]: O=c1[nH]cnc2nc[nH]c12
As to the kind of experiment: purified protein, by the assay type. The conditions noted are these: other: 0.03 M phosphate buffer, 0.012 M MgCl2, 1 mM DTT, pH 7.4, 25 °C, bases at 500 μM PRib-PP, PRib-PP at 40 μM guanine.

Substrate in data set [2]: O=P(O)(O)OC[C@H]1O[C@H](OP(=O)(O)OP(=O)(O)O)[C@H](O)[C@@H]1O
As to the kind of experiment: purified protein, by the assay type. The conditions noted are these: other: 0.03 M phosphate buffer, 0.012 M MgCl2, 1 mM DTT, pH 7.4, 25 °C, bases at 500 μM PRib-PP, PRib-PP at 40 μM guanine.

B1: TbrHGPRT (Trypanosoma brucei brucei) (protein)
chain: MEPACKYDFATSVLFTEAELHTRMRGVAQRIADDYSNCNLKPLENPLVIVSVLKGSFVFTADMVRILGDFGVPTRVEFLRASSYGHDTKSCGRVDVKADGLCDIRGKHVLVLEDILDTALTLREVVDSLKKSEPASIKTLVAIDKPGGRKIPFTAEYVVADVPNVFVVGYGLDYDQSYREVRDVVILKPSVYETWGKELERRKAAGEAKR
For the protein B1, in data set [1], the Michaelis constant (Km) was 5.5 ± 0.3 µM, the kcat worked out at 17.1 s⁻¹ and the kcat/Km came out at 3.1e+06 M⁻¹ s⁻¹. In data set [2], the Km is 103 ± 16 µM.
